Our source for the fluorescence intensity of 5′-6-FAM-labeled RAD51-ssDNA filaments (1 μM RAD51, 15 nM poly-dT39, 2 mM ATP) after addition of 50 nM hSWS1-SWSAP1, 10-s intervals over 60 s values is article PMC12167799, “The role of human Shu complex in ATP-dependent regulation of RAD51 filaments during homologous recombination–associated DNA damage response” (The Journal of Biological Chemistry, 2025).

This experiment concerns the target human RAD51 (human) (UniProt Q06609).

Chain of human RAD51 (human) (Q06609 whole entry): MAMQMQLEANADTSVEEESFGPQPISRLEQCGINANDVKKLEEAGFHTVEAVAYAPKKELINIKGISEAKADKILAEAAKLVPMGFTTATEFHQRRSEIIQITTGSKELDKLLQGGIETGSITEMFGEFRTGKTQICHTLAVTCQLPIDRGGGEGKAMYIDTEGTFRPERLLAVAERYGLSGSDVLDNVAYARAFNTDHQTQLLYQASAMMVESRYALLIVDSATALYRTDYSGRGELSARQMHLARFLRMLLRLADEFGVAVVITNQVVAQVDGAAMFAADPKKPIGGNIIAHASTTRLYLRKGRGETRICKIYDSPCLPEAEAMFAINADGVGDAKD

“human Shu complex hSWS1-SWSAP1, wildtype (from UniProt Q19AV6 1-140; Q6NVH7 1-250)” returned a fluorescence intensity of 5′-6-FAM-labeled RAD51-ssDNA filaments (1 μM RAD51, 15 nM poly-dT39, 2 mM ATP) after addition of 50 nM hSWS1-SWSAP1, 10-s intervals over 60 s of 40%.
